# Measured values as given in US20080241129A1, “ADIPOCYTE SECRETED PROTEIN CCDC80 IS A POTENT STIMULATOR OF BONE FORMATION” (Wyeth, priority 2007, published 2008).
# B1: FLAG-purified Ccdc80 protein: C-terminally FLAG-tagged human Ccdc80 purified from conditioned medium using anti-FLAG M2 affinity beads (protein)
# chain: EPHPHATIRGSHGGRKVPLVSPDSSRPARFLRHTGRSRGIERSTLEEPNLQPLQRRRSVPVLRLARPTEPPARSDINGAAVRPEQRPAARGSPREMIRDEGSSARSRMLRFPSGSSSPNILASFAGKNRVWVISAPHASEGYYRLMMSLLKDDVYCELAERHIQQIVLFHQAGEEGGKVRRITSEGQILEQPLDPSLIPKLMSFLKLEKGKFGMVLLKKTLQVEERYPYPVRLEAMYEVIDQGPIRRIEKIRQKGFVQKCKASGVEGQVVAEGNDGGGGAGRPSLGSEKKKEDPRRAQVPPTRESRVKVLRKLAATAPALPQPPSTPRATTLPPAPATTVTRSTSRAVTVAARPMTTTAFPTTQRPWTPSPSHRPPTTTEVITARRPSVSENLYPPSRKDQHRERPQTTRRPSKATSLESFTNAPPTTISEPSTRAAGPGRFRDNRMDRREHGHRDPNVVPGPPKPAKEKPPKKKAQDKILSNEYEEKYDLSRPTASQLEDELQVGNVPLKKAKESKKHEKLEKPEKEKKKKMKNENADKLLKSEKQMKKSEKKSKQEKEKSKKKKGGKTEQDGYQKPTNKHFTQSPKKSVADLLGSFEGKRRLLLITAPKAENNMYVQQRDEYLESFCKMATRKISVITIFGPVNNSTMKIDHFQLDNEKPMRVVDDEDLVDQRLISELRKEYGMTYNDFFMVLTDVDLRVKQYYEVPITMKSVFDLIDTFQSRIKDMEKQKKEGIVCKEDKKQSLENFLSRFRWRRRLLVISAPNDEDWAYSQQLSALSGQACNFGLRHITILKLLGVGEEVGGVLELFPINGSSVVEREDVPAHLVKDIRNYFQVSPEYFSMLLVGKDGNVKSWYPSPMWSMVIVYDLIDSMQLRRQEMAIQQSLGMRCPEDEYAGYGYHSYHQGYQDGYQDDYRHHESYHHGYPY
# modifications: left off: small tags and cut ends
# Tested on: neonatal mouse calvaria
# Assay: Neonatal calvaria organ culture assay (histomorphometry)
# Type: cell-based
# Procedure: Applicants used mouse neonatal calvaria organ culture assay to examine possible roles for Ccdc80 in bone formation/resorption. Neonatal mouse calvaria were prepared from 4-day-old pups as described previously (Traianedes K et al., Endocrinology 139:3178-84 (1998); Mundy G et al., Science 286:1946-49 (1999)). Briefly, calvaria were excised and cut in half along the sagittal suture. Each half calvaria was placed with the concave surface downward on a stainless steel grid (Small Parts, Inc., Miami, Fla.) in a 12-well tissue culture dish (Becton Dickinson, Oxnard, Calif.). Calvaria were pre-incubated overnight in serum-free BGJ medium with 0.1% BSA. Each well contained 1 ml of BGJ medium. After pre-incubation, calvaria were incubated for 7 days in BGJ medium containing 1% FBS without or with test samples. Calvaria in 12-well plates were incubated in a humidified atmosphere of 95% air and 5% CO2. Fresh test samples were added at the time of medium change on day 4.
# After organ culture, calvaria were fixed in 10% neutral phosphate-buffered formaldehyde at room temperature for 72 hours, then decalcified for 5-6 hours in 10% EDTA in PBS. Calvaria in each group were embedded in parallel in the same paraffin block, and 4 μm sections were stained with hematoxylin-eosin. Consistent bone areas (200 μm away from frontal sutures) were selected for histomorphometric analysis. In brief, a 200 μm square grid was placed on each calvaria, and the number of osteoblasts and total bone area were determined with the Osteomeasure System (Osteometrics Inc., Atlanta, Ga.). All cells on the bone surface were counted as osteoblasts.
# For this experiment, calvaria were prepared from 4-day old neonatal pups. Calvaria then were incubated for 7 days without (Control), or with serial dilutions of FLAG-purified Ccdc80 protein as shown in FIG. 4. Medium was changed on day 4. After organ culture, calvaria were fixed in 10% neutral phosphate buffered formaldehyde, embedded in paraffin block, sectioned at 4 μm, and stained with hematoxylin and Eosin for histomorphoemetric analysis.
# [1] = 1% FLAG-purified Ccdc80 protein, 7 days
molecule,measurement,setting,value
B1,bone resorption (histologically),[1],enhanced
same,number of osteoblasts,[1],not significantly altered
same,osteoblast activation,[1],activated
same,increase in total bone area,"1% FLAG-purified Ccdc80 protein, 7 days, P<0.0001",62%
same,osteogenic activities,"purified protein sample diluted as low as 0.01%, 7 days",clearly observed
same,number of osteoblasts (summary),summary statement,unaltered
same,osteoblast activation (summary),summary statement,activated osteoblasts
